B1: NET1 (parent)
chain: PTPAKRRSSALWSEMLDITMKESL

Variants of: B1
Assay: protein stability index of a GFP-peptide fusion (GPS, HEK-293T) (PSI 1-6); higher = more stable
Details: c terminus: a fixed tail appended
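Also: lentivirally expressed fusions sorted by FACS into six bins by GFP to DsRed ratio, PSI derived from sequencing read proportions per bin multiplied by bin number.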

Point of comparison: PTPAKRRSSALWSEMLDITMKQSL [E22Q], protein stability index 2.57. Against it:
- PTPAKRRSCALWSEMLDITMKESL [S9C] — lower, 1.47
- PTPAKRRSQALWSEMLDITMKESL [S9Q] — lower, 2.34
- PTPAKRRSEALWSEMLDITMKESL [S9E] — lower, 2.4
- PTPAKRRSFALWSEMLDITMKESL [S9F] — lower, 2.05
- PTPAKRRSTALWSEMLDITMKESL [S9T] — lower, 1.57
- PTPAKRRSKALWSEMLDITMKESL [S9K] — lower, 1.64
- PTPAKRRSNALWSEMLDITMKESL [S9N] — lower, 2.21
- PTPAKRRSSALWSEMLDITMKESI [L24I] — lower, 2.29
- PTPAKRRSSALWSEMLDITMKESN [L24N] — higher, 3.01
- PTPAKRRSSALWSEMLDITMKESQ [L24Q] — lower, 1.92
- PTPAKRRSSALWSEMLDITMKESY [L24Y] — lower, 1.88
- PTPAKRRSSALWSEMLDITMKESM [L24M] — lower, 2.28
- PTPAKRRSSALWSEMLDITMKESA [L24A] — higher, 2.59
- PTPAKRRSSALWSEMLDITNKESL [M20N] — higher, 2.74
- PTPAKRRSSALWSEMLDITHKESL [M20H] — lower, 2.45
- PTPAKRRSSALWSEMLDITDKESL [M20D] — higher, 2.58
- PTPAKRRSSALWSEMLDITPKESL [M20P] — higher, 3.25
- PTPAKRRSSALWSEMLDITKKESL [M20K] — higher, 2.75
- PTPAKRRSSALWSEMLDITGKESL [M20G] — higher, 3.44
- PTPAKRRSSALWSEMLDITIKESL [M20I] — lower, 2.09
- PTPAKRRSSALWSEMLDITAKESL [M20A] — lower, 2.24
- PTPAKRRSSALWSEMLDITEKESL [M20E] — lower, 2.17
- PTPAKRRSSALWSEMLDITVKESL [M20V] — higher, 2.73
- PTPAKRRSSALWSEMLDITTKESL [M20T] — higher, 2.76
- PTPAKRRSSALWSEMLDITMIESL [K21I] — lower, 2.06
- PTPAKRRSSALWSEMLDITMEESL [K21E] — higher, 2.8
- PTPAKRRSSALWSEMLDITMVESL [K21V] — lower, 2.5
- PTPAKRRSSALWSEMLDITMRESL [K21R] — lower, 2.33
- PTPAKRRSSALWSEMLDITMNESL [K21N] — higher, 3.67
- PTPAKRRSSALWSEMLDITMYESL [K21Y] — lower, 2.03
- PTPATRRSSALWSEMLDITMKESL [K5T] — lower, 2.51
- PTPARRRSSALWSEMLDITMKESL [K5R] — lower, 2.53
- PTPACRRSSALWSEMLDITMKESL [K5C] — lower, 2.38
- PTPAKRRSSALWSEMLFITMKESL [D17F] — lower, 2
- PTPAKRRSSALWSEMLYITMKESL [D17Y] — higher, 2.83
- PTPAKRRSSALWSEMLKITMKESL [D17K] — lower, 1.25
- PTPAKRRSSALWSEMLNITMKESL [D17N] — higher, 2.75
- PTPAKRRSSALWSEMLIITMKESL [D17I] — lower, 2.31
- PTPAKRRSSALWSENLDITMKESL [M15N] — higher, 3.13
- PTPAKRRSSALWSEQLDITMKESL [M15Q] — higher, 3
- PTPAKRRSSALWSEHLDITMKESL [M15H] — lower, 2.38
- PTPAKRRSSALWSEILDITMKESL [M15I] — lower, 2.07
- PTPAKRRSSALWSEFLDITMKESL [M15F] — lower, 2.04
- PTPAKRRSSALWSEELDITMKESL [M15E] — higher, 4.77
- PTPAKRRSSALWSEWLDITMKESL [M15W] — lower, 2.05
- PTPAKRRSSALWSEKLDITMKESL [M15K] — higher, 2.82
- PTPAKNRSSALWSEMLDITMKESL [R6N] — lower, 2.51
- PTPAKWRSSALWSEMLDITMKESL [R6W] — lower, 1.99
- PTPAKTRSSALWSEMLDITMKESL [R6T] — lower, 1.76
- PTPAKLRSSALWSEMLDITMKESL [R6L] — lower, 1.99
- PTPAKCRSSALWSEMLDITMKESL [R6C] — lower, 1.98
- PTPAKERSSALWSEMLDITMKESL [R6E] — higher, 3.25
- PTPAKSRSSALWSEMLDITMKESL [R6S] — lower, 2.42
- PTPAKRRSSMLWSEMLDITMKESL [A10M] — lower, 2.14
- PTPAKRRSSCLWSEMLDITMKESL [A10C] — lower, 2.18
- PTPAKRRSSKLWSEMLDITMKESL [A10K] — higher, 2.83
- PTPAKRRSSELWSEMLDITMKESL [A10E] — lower, 2.35
- PTPAKRRSSFLWSEMLDITMKESL [A10F] — lower, 2.02
- PTPAKRRSSNLWSEMLDITMKESL [A10N] — higher, 2.67
- PTPAKRRSSGLWSEMLDITMKESL [A10G] — higher, 3.48
- PTPAKRRSSHLWSEMLDITMKESL [A10H] — lower, 2.31
- PTPAKRRSSALWSEMLDIQMKESL [T19Q] — lower, 1.93
- PTPAKRRSSALWSEMLDIPMKESL [T19P] — lower, 1.7
- PTPAKRRSSALWSEMLDIWMKESL [T19W] — lower, 1.61
- PTPAKRRSSALWSEMLDILMKESL [T19L] — lower, 1.66
- PTPAKRRSSALWSEMLDIAMKESL [T19A] — lower, 1.74
- PTPAKRRSSALWSEMLDIDMKESL [T19D] — lower, 2.37
- PTPAKRRSSALWSEMLDINMKESL [T19N] — higher, 3.39
- PTPAKRRSSALWSEMLDIRMKESL [T19R] — lower, 1.81
- PTPAKRRSSALWSEMLDIGMKESL [T19G] — lower, 2.36
- PTPAKRRSSALWSEMLDIHMKESL [T19H] — lower, 2.43
- PTPAKRRSSALWSEMLDIEMKESL [T19E] — lower, 1.43
- PTPAKRRSSALWSEMLDITMKEWL [S23W] — higher, 3.71
- PTPAKRRSSALWSEMLDITMKELL [S23L] — higher, 2.66
- PTPAKRRSSALWSEMLDITMKEKL [S23K] — higher, 2.79
- PTPAKRRSSALWSEMLDITMKEPL [S23P] — higher, 2.63
- PTPAKRRSSALWSEMLDITMKEQL [S23Q] — lower, 2.47
- PTPAKRRSSALWSEMLDITMKENL [S23N] — lower, 2.48
- PTPAKRRSSALWSEMLDITMKEIL [S23I] — lower, 1.89
- PTPAKRRSSALWSEMLDITMKEDL [S23D] — lower, 1.93
- PTPAKRRSSALWSEMLDITMKASL [E22A] — lower, 1
- PTPAKRRSSALWSEMLDITMKTSL [E22T] — higher, 3.06
- PTPAKRRSSALWSEMLDITMKWSL [E22W] — higher, 3.09
- PTPAKRRSSALWSEMLDITMKCSL [E22C] — lower, 1.52
- PTPAKRRSSALWSEMLDITMKKSL [E22K] — lower, 1.48
- PTPAKRRSSALWSEMLDITMKFSL [E22F] — higher, 3.11
- PTPAKRRSSALWSEMLDITMKHSL [E22H] — lower, 1.5
- PTPAKRRSSALWSEMLDITMKNSL [E22N] — lower, 2.19
- PTPAKRRSSALWSEMLDITMKSSL [E22S] — lower, 2.56
- PTPAKRRSSALWSEMLDITMKYSL [E22Y] — higher, 2.82
- PTPWKRRSSALWSEMLDITMKESL [A4W] — lower, 2.27
- PTPTKRRSSALWSEMLDITMKESL [A4T] — lower, 1.95
- PTPPKRRSSALWSEMLDITMKESL [A4P] — lower, 2.11

From the supplement of paper PMC10567573
